From publication PMC7480041 (bioRxiv, 2020)
Where a chain is given by its changes, count along the chain named.

How the values were obtained:
Test in all cases: ELISA
[1] = molecular target: recombinant SARS-CoV N protein (133–422) (SARS-CoV, UniProt P59595)
[2] = molecular target: recombinant HuCoV-NL63 N protein (100–377) (HuCoV-NL63, UniProt Q6Q1R8)
[3] = molecular target: recombinant SARS-CoV N protein (133–422) (SARS-CoV, UniProt P59595 133-422)
[4] = molecular target: T1, recombinant HuCoV-NL63 N protein (100–377) (HuCoV-NL63, UniProt Q6Q1R8 100-377)
T1 sequence: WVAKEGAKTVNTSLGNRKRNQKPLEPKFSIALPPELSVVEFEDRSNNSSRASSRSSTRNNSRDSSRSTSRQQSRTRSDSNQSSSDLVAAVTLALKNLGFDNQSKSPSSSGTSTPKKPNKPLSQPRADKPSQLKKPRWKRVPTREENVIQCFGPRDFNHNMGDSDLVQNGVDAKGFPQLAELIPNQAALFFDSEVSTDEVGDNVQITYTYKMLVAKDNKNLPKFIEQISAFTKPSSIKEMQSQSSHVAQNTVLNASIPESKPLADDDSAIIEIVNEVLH

Chain of recombinant SARS-CoV N protein (133–422) (SARS-CoV, UniProt P59595 133-422) (P59595 133-422): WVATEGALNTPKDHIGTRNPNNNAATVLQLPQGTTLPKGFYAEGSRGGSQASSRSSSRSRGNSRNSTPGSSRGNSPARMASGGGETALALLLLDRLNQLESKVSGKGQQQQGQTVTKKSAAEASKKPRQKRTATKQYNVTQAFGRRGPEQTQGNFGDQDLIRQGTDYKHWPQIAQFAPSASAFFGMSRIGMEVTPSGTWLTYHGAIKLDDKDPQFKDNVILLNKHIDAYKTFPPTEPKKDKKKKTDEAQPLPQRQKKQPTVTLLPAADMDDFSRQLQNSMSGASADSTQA
Chain of recombinant SARS-CoV N protein (133–422) (SARS-CoV, UniProt P59595) (P59595 133-422): as above

B1: mBG21 (antibody, V domains shown)
VH: QIQLVQSGPELKKPGETVKISCKASGYTFTDYSMHWVKQAPGKGSKWMGWINTETGEPTYADDFKGRFAFSLETSASTAYLQINNLKNEDTATYFCALRRWGQGTLVTVSS
VL: IVMTQTPKFLLVSAGDRVTITCKASQSVSNDVAWFQQKPGQSPKKLLIYFASNRYTGVPDRFTGSGYGTDFTFTITTVQAEDLAVYFCQQDYSSPWTFGGGTKLEIK
[1]
  corrected average ELISA signal: 1.49
[2]
  corrected average ELISA signal: 0.47

B2: mBG22 (antibody, V domains shown)
VH: B1 VH with S111A
VL: IVMTQTPKFLLVSAGDRVTITCKASQSVSNDVAWFQQKPGQSPKLLIYFASNRYTGVPDRFTGSGYGTDFTFTITTVQAEDLAVYFCQQDYSSPWTFGGGTKLEIK
[3]
  corrected average ELISA signal: 0.76
[4]
  corrected average ELISA signal: 0.51

B3: mBG67 (antibody, V domains shown)
VH: EVQLVESGGGLVQPGGSLKLSCAASGFTFSNYGMSWVRQTPDKRLELVATINRNGGSTYYLDSVKVRFTISRDNAKSTLFLQLSSLKSDDTAMYYCARIYDFDEDYFDVWGAGTTVTVSS
VL: QIVLTQSPAIMSASLGERVTMTCTASSSVSSSYLHWYQQKPGSSPKLWIYSTSNLASGVPARFSGSGSGTSYSLTISSMEAEDAATYYCLQYHRSPWTFGGGTKLEIK
[3]
  corrected average ELISA signal: 0.39

B4: mBG17 (antibody, V domains shown)
VH: EVKLEESGGGLVQPGGSMKFSCVASGFTFSDYWMNWVRQSPDKGLEWVAEIRLKSNNYATHYAASVKGRFTISRDDSKSSVYLQMNNLRAEDSGIYYCTRSAMDYWGQGTSVTVSS
VL: DIVMSQSPSSLAVSVGEKITMSCKSSQSLLYTSDQKNYLAWFQQKPGQSPKLLIFWASTRDSGVPDRFTGSGSGTDFTLTISSVKAEDLAVYYCQQFYNYPRTFGGGTKLEIK
[3]
  corrected average ELISA signal: 1.39
[4]
  corrected average ELISA signal: 0.54
